Data from patent publication US20210155689A1 (SHANGHAI PHARMAEXPLORER, published 2021).
Positions count from the first letter of the chain named.

T1: human LAG-3 on cells (HEK293-hLAG-3 stable cell line) (human, UniProt P18627 23-525)
T1 sequence: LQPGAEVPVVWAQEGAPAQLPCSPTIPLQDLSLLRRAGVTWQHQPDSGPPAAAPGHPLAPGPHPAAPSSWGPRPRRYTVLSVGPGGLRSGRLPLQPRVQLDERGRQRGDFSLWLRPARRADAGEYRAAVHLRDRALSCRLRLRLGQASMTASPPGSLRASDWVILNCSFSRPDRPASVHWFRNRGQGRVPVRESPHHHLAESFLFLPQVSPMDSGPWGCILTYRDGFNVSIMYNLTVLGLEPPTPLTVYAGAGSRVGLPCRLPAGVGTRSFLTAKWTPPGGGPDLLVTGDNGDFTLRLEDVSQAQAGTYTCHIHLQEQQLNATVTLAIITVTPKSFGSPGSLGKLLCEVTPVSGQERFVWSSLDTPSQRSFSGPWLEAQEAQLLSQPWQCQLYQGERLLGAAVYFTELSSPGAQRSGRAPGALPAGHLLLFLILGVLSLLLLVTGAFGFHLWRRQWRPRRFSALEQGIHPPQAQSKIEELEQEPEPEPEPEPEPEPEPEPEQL

T2: monkey LAG-3 on cells (HEK293-cLAG-3 stable cell line) (monkey, UniProt P18627 24-525 (human entry))
T2 construct: Full-length monkey (Chinese monkey) LAG-3 gene expressed on HEK293 cells
T2 chain: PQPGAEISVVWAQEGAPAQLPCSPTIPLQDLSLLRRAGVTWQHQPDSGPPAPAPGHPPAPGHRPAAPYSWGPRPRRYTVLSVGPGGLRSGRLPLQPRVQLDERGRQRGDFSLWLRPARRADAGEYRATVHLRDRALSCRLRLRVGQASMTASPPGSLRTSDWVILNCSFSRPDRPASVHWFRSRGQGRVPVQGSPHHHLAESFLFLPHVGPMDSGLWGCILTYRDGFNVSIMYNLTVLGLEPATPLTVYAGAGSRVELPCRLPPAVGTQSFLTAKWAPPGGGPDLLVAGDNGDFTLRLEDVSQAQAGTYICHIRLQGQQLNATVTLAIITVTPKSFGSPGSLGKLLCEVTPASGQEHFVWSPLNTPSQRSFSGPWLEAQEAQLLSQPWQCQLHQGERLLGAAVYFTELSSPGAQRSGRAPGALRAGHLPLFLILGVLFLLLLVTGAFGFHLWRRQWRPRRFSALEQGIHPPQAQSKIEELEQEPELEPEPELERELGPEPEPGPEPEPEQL

T3: human LAG-3 (full length, on the cell surface) (human, UniProt P18627 23-525)
T3 construct: Full-length human LAG-3 expressed on cells; also called HEK293-hLAG-3; HEK293 cells transfected with LAG-3 gene
T3 sequence: T1 sequence

B1: 556F6B8 mouse-human chimeric antibody (antibody, V domains shown)
VH: RVQLKQSGPGLVQPSQSLSITCTVSGFSLIKYGVHWVRQSPGEGLEWLGVIWRGGITDYNAAFMSRLSITKDNSKSQVFFKMNSLQADDTAIYYCAKWDGPLAMDYWGQGTSVTVSS
VL: DIVMTQSHKFLSTSVGDRVSITCKASQDVGTTVAWYQQKPGQSPKLLIYWASTRHTGVPDRFTGSGSGTDFTLTISNVQSEDLADYFCQQYSSYPYTFGGGTKLEIK
notes: also called mAb123-556F6B8; 556F8B8
B2: 556F6B8 (mouse antibody purified from hybridoma) (antibody, V domains shown)
VH: B1 VH
VL: B1 VL
notes: also called mAb123-556F6B8
B3: 405B8H3 (mouse antibody purified from hybridoma) (antibody, V domains shown)
VH: QVQLQQSGAELVRPGASVTLSCKASGYTFTDYEMHWVKQTPVHGLEWIGATDPETGNSAYNQKFKGKAIMTADKSSSTAYMELRSLTSEDSAVYYCISTGWNDWGQGTSLTVSS
VL: DIKMTQSPSSMYASLGERVTITCKASQDINSYLSWFQQKPGKSPKTLIYRADRLLDGVPSRFSGSGSGQDYSLTISSLEYGDMGIYYCLQYDEFPYTFGGGTKLEIK
notes: also called mAb103-405B8H3; 405B81-13
B4: 405B8H3 mouse-human chimeric antibody (antibody, V domains shown)
VH: B3 VH
VL: B3 VL
notes: also called mAb103-405B8H3
B5: 105F1E10 mouse-human chimeric antibody (antibody, V domains shown)
VH: EVQLQQSGPELVKPGASVKMSCRASGYTFTDFKMHWMKQSHGKSLEWIGYIAPNNGGTAYNQKFRGKATLTVNESSNTAYMELRSLTSEDSAVYYCVDWDDVDYWGQGTTLTVSS
VL: B3 VL with P40S, D52N, L55V, G81E, D92V, Y96L, G100A, I106L
notes: also called mAb009-105F1E10
B6: 105F1E10 (mouse antibody purified from hybridoma) (antibody, V domains shown)
VH: B5 VH
VL: B3 VL with P40S, D52N, L55V, G81E, D92V, Y96L, G100A, I106L
notes: also called mAb009-105F1E10
B7: 409B11E12 mouse-human chimeric antibody (antibody, V domains shown)
VH: B3 VH with P41T, G56S, N57Y, M70L, S98A
VL: B3 VL with I2L, D52N, G81E
notes: also called mAb104-409B11E12
B8: 409D4E10 (mouse antibody purified from hybridoma) (antibody, V domains shown)
VH: B3 VH with Y27N, G56D, S58T, M70L, A72T, S98T, T99S
VL: B3 VL with D52N, G81E, D92N
notes: also called mAb112-409D4E10
B9: 409D4E10 mouse-human chimeric antibody (antibody, V domains shown)
VH: B3 VH with Y27N, G56D, S58T, M70L, A72T, S98T, T99S
VL: B3 VL with D52N, G81E, D92N
notes: also called mAb112-409D4E10
B10: 409B11E12 (mouse antibody purified from hybridoma) (antibody, V domains shown)
VH: B3 VH with P41T, G56S, N57Y, M70L, S98A
VL: B3 VL with I2L, D52N, G81E
notes: also called mAb104-409B11E12

How the values were obtained:
[1] = target: T1, human LAG-3 on cells (HEK293-hLAG-3 …); test: FACS, HEK293-hLAG-3, antibody 1.600 nM
From the text: (§1) The pIRES plasmid with the monkey-derived full-length gene was transfected into the HEK293 cell line to construct a HEK293 stable cell line containing monkey LAG-3 (herein referred to as HEK293-cLAG-3 stable cell line). The HEK293-hLAG-3 stable cell line and HEK293-cLAG-3 stable cell line were expanded in a T-75 cell culture flask to a 90% confluence. The medium was aspirated, and the cells were washed with HBSS (Hanks' Balanced Salt Solution) 1-2 times, then treated with a enzyme-free cell dissociation fluid (Versene solution: Life technology) and the cells were collected. The cells were washed with HBSS buffer for 1-2 times. After counted, the cells were diluted with HBSS to 1-2×10⁶ cells per ml, added with 1% goat serum blocking solution, incubated on ice for 20-30 minutes, and then washed with HBSS for 2 times by centrifugation. The collected cells were suspended in the FACS buffer (HBSS+1% BSA) to 2×10⁶ cells/ml, added as 100 microliters per well to a 96-well FACS reaction plate, added with 100 microliters per well of the antibody sample to be tested, incubated on ice for 1-2 hours. The plate was washed twice with the FACS buffer by centrifugation, added with 100 microliters of fluorescent (Alexa 488)-labeled secondary antibodies per well, and incubated on ice for 0.5-1.0 hours. The plate was washed 2-3 times with FACS buffer by centrifugation, added with 100 μl fixative solution (4% Paraformaldehyde) per well to suspend the cells. 5-10 minutes later, it was washed 1-2 times with FACS buffer by centrifugation. The cells were suspended with 100 microliters of FACS buffer, FACS (FACSCalibur, BD) was used for detection and the results were analyzed.

[2] = target: T2, monkey LAG-3 on cells (HEK293-cLAG-3 …); test: FACS, HEK293-cLAG-3, antibody 0.000 nM
From the text: as §1

[3] = target: T3, human LAG-3 (full length, on the cell …); test: FACS, HEK293-hLAG-3; 0.000 nM
From the text: as §1

[4] = target: T3, human LAG-3 (full length, on the cell …); test: FACS, HEK293-hLAG-3; 0.013 nM
From the text: as §1

[5] = target: T3, human LAG-3 (full length, on the cell …); test: FACS, HEK293-hLAG-3; 0.320 nM
From the text: as §1

Row | Binder | Mean fluorescence intensity [1] | Mean fluorescence intensity [2] | Mean fluorescence intensity [3] [MFI] | Mean fluorescence intensity [4] [MFI] | Mean fluorescence intensity [5] [MFI]
1 | B1 | 39.1 | 3.1 | – | – | –
2 | B2 | – | – | 2.8 | 3.6 | 16.1
3 | B3 | – | – | 3.7 | 5 | 24.7
4 | B4 | 62.3 | 2.9 | – | – | –
5 | B5 | 34.7 | 2.72 | – | – | –
6 | B6 | – | – | 3.7 | 5 | 23.3
7 | B7 | 69 | 2.84 | – | – | –
8 | B8 | – | – | 2.8 | 3.3 | 13
9 | B9 | 56.8 | 2.99 | – | – | –
10 | B10 | – | – | 2.5 | 2.9 | 13.4
